Assay results taken from patent US20240263193A1 (published 2024).

T1: CP5-46-4D5E
T1 peptide: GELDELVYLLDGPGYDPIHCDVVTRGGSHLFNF

B1: ALFA-Bcl dual input iADAR (other)
chain: MASNFTQFVLVDNGGTGDVTVAPSNFANGIAEWISSNSRSQAYKVTCSVRQSSAQNRKYTIKVEVPKGAWRSYLNMELTIPIFATNSDCELIVKAMQGLLKDGNPIPSAIAANSGIYGGSGSGAGSGSPAGGGAPGSGGGSTGAPPNLWAAQRYGRELRRMSDEFVDSFKKASQLHLPQVLADAVSRLVLGKFGDLTDNFSSPHARRKVLAGVVMTTGTDVKDAKVISVSTGTKCINGEYMSDRGLALNDCHAEIISRRSLLRFLYTQLELYLNNKDDQKRSIFQKSERGGFRLKENVQFHLYISTSPCGDARIFSPHEPILEEPAASGSGPGRLEEELRRRLSPGTGDRHPNRKARGQLRTKIESGQGTIPVRSNASIQTWDGVLQGERLLTMSCSDKIARWNVVGIQGSLLSIFVEPIYFSSIILGSLYHGDHLSRAMYQRISNIEDLPPLYTLNKPLLSGISNAEARQPGKAPNFSVNWTVGDSAIEVINATTGKDELGRASRLCKHALYCRWMRVHGKVPSHLLRSKITKPNVYHESKLAAKEYQAAKARLFTAFIKAGLGAWVEKPTEQDQYSLTGSGGTAEVQLQESGGGLVQPGGSLRLSCTASGVTISALNAMAMGWYRQAPGERRVMVAAVSERGNAMYRESVQGRFTVTRDFTNKMVSLQMDNLKPEDTAVYYCHVLEDRVDSFHDYWGQGTQVTVSSGAGSGASSNRELVVDFLSYKLSQKGYSWSQFSDVEENRTEAPEGTESEMETPSAINGNPSWHLADSPAVNGATGHSSSLDAREVIPMAAVKQALREAGDEFELRYRRAFSDLTSQLHITPGTAYQSFEQVVNELFRDGVNWGRIVAFFSFGGALCVESVDKEMQVLVSRIAAWMATYLNDHLEPWIQENGGWDTFVELYGNNGSSELIKENMHMKLYMEGTVDNHHFKCTSEGEGKPYEGTQTMRIKVVEGGPLPFAFDILATSFLYGSKTFINHTQGIPDFFKQSFPEGFTWERVTTYEDGGVLTATQDTSLQDGCLIYNVKIRGVNFTSNGPVMQKKTLGWEAFTETLYPADGGLEGRNDMALKLVGGSHLIANIKTTYRSKKPAKNLKMPGVYYVDYRLERIKEANNETYVEQHEVAVARYCDLPSKLGHKLN
B2: NS4A/NS3 (Genotype 1B) (enzyme)
chain: GSVVIVGRIILSGSGSITAYSQQTRGLLGCIITSLTGRDKNQVEGEVQVVSTATQSFLATCVNGVCWTVYHGAGSKTLAGPKGPITQMYTNVDQDLVGWQAPPGARSLTPCTCGSSDLYLVTRHADVIPVRRRGDSRGSLLSPRPVSYLKGSSGGPLLCPSGHAVGIFRAAVCTRGVAKAVDFVPVESMETTMRS

What was measured:
[1] = target: EGFP(R96M)-AlfaTag; test: cell-based or functional assay
[2] = target: T1, CP5-46-4D5E; test: cell-based or functional assay

Row | Binder | median relative fluorescence of the 4xUAG-MS2 reporter, A-1331852 plus EGFP(R96M)-AlfaTag against A-1331852 alone, HEK293FT, flow cytometry [1] [fold] | fold change of the grazoprevir treated iADAR compared to DMSO treated, unmutated Pep-NS3 system, 4xUAG MS2 reporter, HEK293FT, flow cytometry (intramolecular pair) [2] [fold] | ratio of mNeonGreen to mCherry (mNG/mCh), 2 µM grazoprevir against no drug, HEK cells, microscopy (intramolecular pair) [2] [fold]
1 | B1 | ~110 | – | –
2 | B2 | – | ~31 | ~18
